Molecular target: the molecule itself
Assay: SEC; gel filtration on a Sephadex 100 (G-100) size exclusion column; 20 mM HEPES, 10% glycerol, 150 mM NaCl, pH 7.8, 0.014% Fos-Choline-14; immunoglobulin of 150 kDa as reference for the tetrameric fraction

B1: Δ1–854 hTRPA1 (human TRPA1 without its N-terminal ankyrin repeat domain and transmembrane segments S1–S4) (domain or fragment, UniProt O75762 855-1119, looked up)
chain: NCGIFIVMLEVILKTLLRSTVVFIFLLLAFGLSFYILLNLQDPFSSPLLSIIQTFSMMLGDINYRESFLEPYLRNELAHPVLSFAQLVSFTIFVPIVLMNLLIGLAVGDIAEVQKHASLKRIAMQVELHTSLEKKLPLWFLRKVDQKSTIVYPNKPRSGGMLFHIFCFLFCTGEIRQEIPNADKSLEMEILKQKYRLKDLTFLLEKQHELIKLIIQKMEIISETEDDDSHCSFQDRFKKEQMEQRNSRWNTVLRAVKAKTHHLEP
notes: keeps most of the S4-S5 linker (N855, C856), S5-S6 and the C-terminal domain; gene optimised for expression in insect cells; the vector pTriEx-3 is named; The tetramer is by gel filtration; a smaller monomeric fraction eluted as well; also called S1–S4 transmembrane domain deleted hTRPA1
  stoichiometry N: 4

Source: paper PMC9576766, “The human TRPA1 intrinsic cold and heat sensitivity involves separate channel structures beyond the N-ARD domain” (Nature Communications, 2022)
